This experiment addresses T1, Protein H (Streptococcus pyogenes (strain AP1), ^125I-labelled in the plate binding assay; Alexa-488 succinimidyl ester-labelled in thermophoresis; unlabelled elsewhere).
T1 construct: Protein H, surface protein of the M protein family of Streptococcus pyogenes AP1; recombinant; theoretical mass of the monomer 42 kDa; written as the single chain because its self-association is itself measured; also called ^125I-Protein H; source: E. coli, expressed and purified (previously described protocols)
T1 chain: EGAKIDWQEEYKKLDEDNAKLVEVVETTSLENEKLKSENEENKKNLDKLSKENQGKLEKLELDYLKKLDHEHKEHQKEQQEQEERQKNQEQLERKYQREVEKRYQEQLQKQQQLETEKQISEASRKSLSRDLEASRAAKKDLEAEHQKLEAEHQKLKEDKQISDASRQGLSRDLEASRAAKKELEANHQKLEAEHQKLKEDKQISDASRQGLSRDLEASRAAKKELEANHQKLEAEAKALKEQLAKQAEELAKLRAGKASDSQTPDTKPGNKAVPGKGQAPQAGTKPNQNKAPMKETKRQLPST
The experiment in a line: native gel or EMSA; native horizontal agarose gel, 75 mM sodium barbital pH 8.6, Coomassie blue; two proteins pre-incubated in PBS 1 h at 37°C (ratios as C4BP:IgG:Protein H 1:10:10). The following applies: both partners purified. For orientation: Mobility shift assays separate free from complexed probe on a gel.

B1: Denosumab (monoclonal human IgG2) (antibody, V domains shown)
VH: EVQLLESGGGLVQPGGSLRLSCAASGFTFSSYAMSWVRQAPGKGLEWVSGITGSGGSTYYADSVKGRFTISRDNSKNTLYLQMNSLRAEDTAVYYCAKDPGTTVIMSWFDPWGQGTLVTVSS
VL: EIVLTQSPGTLSLSPGERATLSCRASQSVRGRYLAWYQQKPGQAPRLLIYGASSRATGIPDRFSGSGSGTDFTLTISRLEPEDFAVFYCQQYGSSPRTFGQGTKVEIK
notes: constant region of the human IgG2 heavy chain; it is here the ligand of Protein H through its Fc; Recombinantly expressed drug antibody; also called hu-IgG2; source: bought: Amgen
As for B1, the binding result was “binds”.

The record behind these values is publication PMC6557989, “The Molecular Basis of Human IgG-Mediated Enhancement of C4b-Binding Protein Recruitment to Group A Streptococcus” (Frontiers in Immunology, 2019).
